Molecular target: the molecule itself
Assay: cryo-EM imaging

B1: MBP-MxB (full-length WT MxB tagged with maltose-binding protein) (natural protein, UniProt P20592 1-715, looked up)
chain: MSKAHKPWPYRRRSQFSSRKYLKKEMNSFQQQPPPFGTVPPQMMFPPNWQGAEKDAAFLAKDFNFLTLNNQPPPGNRSQPRAMGPENNLYSQYEQKVRPCIDLIDSLRALGVEQDLALPAIAVIGDQSSGKSSVLEALSGVALPRGSGIVTRCPLVLKLKKQPCEAWAGRISYRNTELELQDPGQVEKEIHKAQNVMAGNGRGISHELISLEITSPEVPDLTIIDLPGITRVAVDNQPRDIGLQIKALIKKYIQRQQTINLVVVPCNVDIATTEALSMAHEVDPEGDRTIGILTKPDLMDRGTEKSVMNVVRNLTYPLKKGYMIVKCRGQQEITNRLSLAEATKKEITFFQTHPYFRVLLEEGSATVPRLAERLTTELIMHIQKSLPLLEGQIRESHQKATEELRRCGADIPSQEADKMFFLIEKIKMFNQDIEKLVEGEEVVRENETRLYNKIREDFKNWVGILATNTQKVKNIIHEEVEKYEKQYRGKELLGFVNYKTFEIIVHQYIQQLVEPALSMLQKAMEIIQQAFINVAKKHFGEFFNLNQTVQSTIEDIKVKHTAKAENMIQLQFRMEQMVFCQDQIYSVVLKKVREEIFNPLGTPSQNMKLNSHFPSNESSVSSFTEIGIHLNAYFLETSKRLANQIPFIIQYFMLRENGDSLQKAMMQILQEKNRYSWLLQEQSETATKRRILKERIYRLTQARHALCQFSSKEIH
B1: binds.

From publication PMC4252739 (Cell host & microbe, 2014)
